We go through 41 sequences from the nanobody polyreactivity screen of Harvey et al. (2022).

This data set in a line: yeast display, Sf9 membrane polyspecificity reagent, FACS + sequencing; frameworks hold sequencing errors. In a few lines:
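A nanobody's polyreactivity label depends on the gate it was sorted from. Yeast display cells were stained with 10% biotinylated, detergent-solubilized Sf9 membrane reagent for 1 hour at 4 °C, enriched on streptavidin microbeads and sorted by FACS. The low and high (top ~1%) gates were set on anti-HA fluorescence for expression and streptavidin fluorescence for reagent binding.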
Take “QVQLVESGGGLVQAGGSLRLSCAASGGTFYFNAMGWYRQAPGKERELVATIRYSGGSTYYADSVKGRFTISRDNAKNTVYLQMNSLKPEDTAVYYCNARPRYLSPYRPFKYNYWGQGTQVTVSS”: the “polyreactivity (PSR sort gate)” value is on record as “high polyreactivity”. With “QVQLVESGGGLVQAGGSLRLSCAASGGTFYFYAMGWDRQAPGKERELVAAISRSVGSTYYADSVKGRFTISRDNAKNTVYLQMNSLKPEDTAVYYCAARYTGGGIRYDYWGQGTQVTLSS”, the “polyreactivity (PSR sort gate)” value is listed as “high polyreactivity”. For “QVQLVESGGGLVQAGGSLRLSCAASGGTFYGYAAMGWYRQAPGKERELVAAISRSGGRTYYADSVKGRFTISRDNAKNTVYLQMNSLKPEDTAVYDCNVGFYPYSFLTFQGGDYWGQGTQVTVSS” the value was “high polyreactivity”; for “QVQLVESGGGLVQAGGSLRLSCAASGGTFYGYAMGWYRQAPGKERELVAAINYRGGRTYYADSVKGRFTISRDNAKNTVYLQMNSLKPEDTAVYYCAATSYRLDGYDYWGQGTQVTVSS”, “high polyreactivity”; for “QVQLVESGGGLVQAGGSLRLSCAASGGTFYGYAMGWYRQAPGKERELVAAITSGDSTNYADSVKGRFTISRDNAKNTVYLQMNNLKPEDTAVYYCAAGDPTLLNESFDYWGQGTQVTVSS”, “low polyreactivity”. On to “QVQLVESGGGLVQAGGSLRLSCAASGGTFYHNVMGWYRQAPGKERELVAAIRYSGGRTYYADSVKGRFTLSRDNAKNTVYLQMNSLKPEDTAVYYCAVRSYYGPFGYWGQGTQVTVSS”, for which the “polyreactivity (PSR sort gate)” value is on record as “high polyreactivity”. With “QVQLVESGGGLVQAGGSLRLSCAASGGTFYLNAMGWYRQAAGKERELVAGISWGGGRTYYADSVKGRFTISRDNAKNTVYLQMNSLKPEDTAVYYCAAGAWRGPYSGYYYWGQGTQVTVSS”, the “polyreactivity (PSR sort gate)” value is “low polyreactivity”.

“QVQLVESGGGLVQAGGSLRLSCAASGGTFYLNAMGWYRQAPGKERELVAGITWGGGRTYYADSVKGRFTISRDNAKNTVYLQMNSLKQEDTEVYYCAAGAWRGPYSGYYYWGQGTQVTVSS”: the “polyreactivity (PSR sort gate)” value is “low polyreactivity”. In the case of “QVQLVESGGGLVQAGGSLRLSCAASGGTFYNYAMGWYRQAPGKERELVAAISTSGTSTYYADSVKGRFTISRDNAKNTVYLQMNSLKPEDTAVYYCAARGLRVSSRGYYWGQGTQVTVSS”, the “polyreactivity (PSR sort gate)” value was “high polyreactivity”. For the sequence “QVQLVESGGGLVQAGGSLRLSCAASGGTFYRYAMGWYRQAPGKERELVAAISRGGSTTYADSVKGRFTISRDNAKNTVYLQMNSLKPEDTAVYYCAARYRCSLPAGLRLLGQGTQVTVSS”, the “polyreactivity (PSR sort gate)” value was “high polyreactivity”. As for “QVQLVESGGGLVQAGGSLRLSCAASGGTFYVNALGWYRQAAGKERELVAAISYSGGNTYYADSVKGRFTISRDNAKNTVYLQMNSLKPEDTAVYYCAGEVFPWWGDDYWGQGTQVTVSS”, the “polyreactivity (PSR sort gate)” value is recorded as “low polyreactivity”. As to “QVQLVESGGGLVQAGGSLRLSCAASGGTFYYYAMGWYRQAPGKERELVAAITRSGGNTYYADSVKGRFTISRDNAKNTVYLQMNSLKPEDTAVYYCAAPFVKFVGSLVYAGYDSWGQGTQVTVSS”, the “polyreactivity (PSR sort gate)” value is listed as “low polyreactivity”. Regarding “QVQLVESGGGLVQAGGSLRLSCAASGGTIAFNGMGWYRQAPAKERELVAAITWRSGSTYYADSVKGRFTISRDNAKNTVYLQMNSLKPEDTAVYYCAARLYRYTPFDYWGQGTQVTVSS”, the “polyreactivity (PSR sort gate)” value is reported as “high polyreactivity”. Turning to “QVQLVESGGGLVQAGGSLRLSCAASGGTIAPYAMVWYRQAPGKERELVATISYSGTSTNYADSVKGRFTITRDNAKNTVYLQMNSLKPEDTAVYYCYAVLYARQRDRWARYDYWGQGTQVTVSS”, the “polyreactivity (PSR sort gate)” value is “high polyreactivity”. As to “QVQLVESGGGLVQAGGSLRLSCAASGGTIDYAMGWYSQAPGKERELVAAISKHGGRTYYADSVKGRFTISRDNAKYTVYLQMNSLKPEDTAVYYCAADAFRGFYWGQGTQVTVSS”, the “polyreactivity (PSR sort gate)” value is “high polyreactivity”.

On to “QVQLVESGGGLVQAGGSLRLSCAASGGTITPYAMGWYRQAPGKERELVAAISRSGARTYYADSVKGRFTISRDNAKNTVYLQMNSLKPEDTAVYYCAKTFSGYRFDYWGQGTQVTVSS”, for which the “polyreactivity (PSR sort gate)” value was “high polyreactivity”. With “QVQLVESGGGLVQAGGSLRLSCAASGGTIVWNAMGWYRQAPGKEREFVAAITSSGGSTYYADSVKGRFTITRDYAKNTVYLQINSLKPEDTAVDYCNVDTHSSYEFNSWGQGTQVTVSS”, the “polyreactivity (PSR sort gate)” value is on record as “low polyreactivity”.

With “QVQLVESGGGLVQAGGSLRLSCAASGGTLKYYAMGWYRQAPGKEREVVATISSRGGSTYYADSVKGRFTISRDNAKNTVYLQMNSLKPEDTAVYYCARRYWVQSRYPEMDYWGQGTQVTVSS”, the “polyreactivity (PSR sort gate)” value is reported as “high polyreactivity”.

Consider “QVQLVESGGGLVQAGGSLRLSCAASGGTLVPNAMGWYRPAPGKERELVAGISGSGGSTYYADSVKGRFTISRDNAKNTVYLQMNSLKPEDTAVYYCNADRYVPYYEPEMDYWGQGTQVTVSS”, for which the “polyreactivity (PSR sort gate)” value is “low polyreactivity”. Regarding “QVQLVESGGGLVQAGGSLRLSCAASGGTVTYNAMGWYRQAPGKERELVAAITNGGGSTYYADSVKGRFTISRDYAKNTVYLQMNSLKPEDTAVYYCAARWWYYYTEYDYWGQGTQVTVSS”, the “polyreactivity (PSR sort gate)” value is on record as “low polyreactivity”. For “QVQLVESGGGLVQAGGSLRLSCAASGHIFFYYTMGWYRQAPGKERELVAGITIGGSTNYADSVKGRFTISRDNAKNTVYLQMNSLKPEDSAVYYCNVVKYVYIYSYWEYYYWGQGTQVTVSS” the value was “low polyreactivity”. Consider “QVQLVESGGGLVQAGGSLRLSCAASGHIFSYYAMGWYRQAPGKERELVAAISSSGSSTYYADSVKGRFTISRDNAKNTVYLQMNSLKPEDTAVYYCNAPYIAWYDGDYWGQGTQVTVSS”, for which the “polyreactivity (PSR sort gate)” value was “low polyreactivity”. Turning to “QVQLVESGGGLVQAGGSLRLSCAASGHIFTRNSMGWYRQAPGKERELVAAISRTGGSTYYADSVKGRFTISRDNAKNTVYLQMNSLKPEDTAVYDCAKRRQASEDYWGQGTQVTVSS”, the “polyreactivity (PSR sort gate)” value is recorded as “high polyreactivity”. Consider “QVQLVESGGGLVQAGGSLRLSCAASGHILFKYTMGWYRQAPGKERELVAAISRSGGTTYYADSVKGRFTISRDNAKNTVYLQMNSLKPEDTAVYYCAARVTPGRNGGGYWGQGTQVTVSS”, for which the “polyreactivity (PSR sort gate)” value was “high polyreactivity”. Regarding “QVQLVESGGGLVQAGGSLRLSCAASGHIYFYYTMGWYRQAPGKERDLVAGITIGGSTNYADSVKGRFTISRDNAKNTVYLQMNSLKPEDTAVYYCNVVKYVYIYSYWEYYYWGQGTQVTVSS”, the “polyreactivity (PSR sort gate)” value is given as “low polyreactivity”. Regarding “QVQLVESGGGLVQAGGSLRLSCAASGHIYVRYAMGWYRQAPGKERELVAAITSGGSTYYADSVKGRFTISRDNAKNTVYLQMNSLKPEDTAVYYCAARKQQYRFTHDYWGQGTQVTVSS”, the “polyreactivity (PSR sort gate)” value is “high polyreactivity”. With “QVQLVESGGGLVQAGGSLRLSCAASGIAYTYNAMGWYRQAPGKERELVASISRTGGSTRYADSVKGRFTISRDNAKNTFYLQMNSLKPEDTAVYYCAALSWRYVKYRFDYWGQGTQVTVSS”, the “polyreactivity (PSR sort gate)” value is recorded as “high polyreactivity”.

In the case of “QVQLVESGGGLVQAGGSLRLSCAASGIFIDSNAMGWNRQAPGKERELVAAITSGGSTKYADSVKGRFTISRDTAKNTVYLQMNSLKPVDTAVYYCNAGPAVRSAYSTPYYDYWGLGTQVTVSS”, the “polyreactivity (PSR sort gate)” value is listed as “low polyreactivity”. Consider “QVQLVESGGGLVQAGGSLRLSCAASGIFLVYAMGWYRQAPGKERELVAAIRSDASTNYADSVKWRFTISRDNAKKTVYLQMNILKPEDSAVYYCNTAQLVSDEFDYWGQGTQVTVSS”, for which the “polyreactivity (PSR sort gate)” value is given as “low polyreactivity”.

Consider “QVQLVESGGGLVQAGGSLRLSCAASGIFRSNTMGWYRQAPGKERELVATISRRSGSTYYADSVKGRFTISRDNAKNTVYLQMNSLKPEDTAVYYCAAAAPRRKYDYWGQGTQVTVSS”, for which the “polyreactivity (PSR sort gate)” value is reported as “high polyreactivity”. On to “QVQLVESGGGLVQAGGSLRLSCAASGIFSHYALGWYRQAPGKERELVAAISSSGGRTYYADSVKGRFTISRDNAKNTVYLQMNSLKPEDTAVYYCAAPWRSSPYHFYYWGQGTQVTVSS”, for which the “polyreactivity (PSR sort gate)” value is “high polyreactivity”. For “QVQLVESGGGLVQAGGSLRLSCAASGIFSRYAMGWYIQAPGKERELVAAISSGDSTNYADSVKGRFTISRDNAKNTVYLQMNSLKPEDTAVYYCATERSHLATGQGYYYVQTFYYWGQGTQVTVSS” the value was “low polyreactivity”; for “QVQLVESGGGLVQAGGSLRLSCAASGIFSYYAMGWYRQAPGKERELVAAISSSGGSTYYADSVKGRFTISRDNAKNTVYLQMNSLKPEDTAVYYCNVRNYYNDYYYWGQGTQVTVSS”, “high polyreactivity”; for “QVQLVESGGGLVQAGGSLRLSCAASGIFTRYVMGWYRQAPGKERELVAAITANGGRTYYADSVKGRFTISRDNAKNTVYLQMNSLKPEDTAVYYCNADWRWKWSSRGGYWGQGTQVTVSS”, “high polyreactivity”. Turning to “QVQLVESGGGLVQAGGSLRLSCAASGIFVGNAMGWYRQAPGKERELVAAITGDGDSTYYADSVKGRFTISRDNAKNTVYLQMNSLKPEDNAVYYCNTVFDTIVDKYYYWGQGTQVTVSS”, the “polyreactivity (PSR sort gate)” value is listed as “low polyreactivity”. Take “QVQLVESGGGLVQAGGSLRLSCAASGIFVYYAMGWYRQAPGKERELVAAISSTGTSTYYADSVKGRFTISRDNAKNTVYLQMNSLKPEDTAVYYCAARGYAKRGYWGQGTQVTVSS”: the “polyreactivity (PSR sort gate)” value is on record as “high polyreactivity”. As for “QVQLVESGGGLVQAGGSLRLSCAASGIHFRSNAMGWYRQAPGKERELVAAISGRGGRTYYADSVKGRFTISRDNAKNTVYLQMNSLKPEDTAVYYCARESYLGATYPKAYGPYYYWGQGTQVTVSS”, the “polyreactivity (PSR sort gate)” value is “high polyreactivity”. Consider “QVQLVESGGGLVQAGGSLRLSCAASGIICWWNTMGWYRQAPGKERELVATITRGGSTYYADSVKGRFTISRDNAKNTVYLQMNSLKPEDTAVYYCNAVQYKYLAKSYDYWGQGTQVTVSS”, for which the “polyreactivity (PSR sort gate)” value is recorded as “low polyreactivity”. On to “QVQLVESGGGLVQAGGSLRLSCAASGIIFADNDMGWYRQAPVKERELVATISSAGNTNYADSVKGRFTISRDNAKNTVYLQMNSLKPEDTAVYYCAVVYYIPLLPPWIYEYDYWGQGTQVTVSS”, for which the “polyreactivity (PSR sort gate)” value is reported as “low polyreactivity”. As to “QVQLVESGGGLVQAGGSLRLSCAASGIIFADYAMGWYIQAPGKERELVAAISTSGGSTYYADSVKGRFTISRDNAKNPVYLQMNSLKPEDTAVYYCNAVYYTSYSGYQFVYEYDYWGQGTQVTVSS”, the “polyreactivity (PSR sort gate)” value is given as “low polyreactivity”.

In the case of “QVQLVESGGGLVQAGGSLRLSCAASGIIFALNAMGWYRQAPGKERELVATIDSTSGSTYYADSVKGRFTISRDNAKNTVYLQMNSLKPEDTAVYYCAVVHAQSAPMDYWGQGTQVTVSS”, the “polyreactivity (PSR sort gate)” value is reported as “low polyreactivity”.
